Assay results from patent publication US8748390B2, “Immunogenic epitopes of NGEP antigen” (The United States of America, as represented by the …, priority 2009, dated 2014).

Experiments:
[1] = target: T1, HLA-A2 molecules (Homo sapiens, UniProt P04439, D140Y/D185E/D98H/E176V/E277Q/G131W/G231S/I119V/I121R/I166T/I218V/L300P/L318F/N151K/N90K/P208A/P217A/Q86G/Q94H/R138H/R169H/T345S); experiment: T2 cell-binding assay: regulation of HLA-A2 expression on T2 cells by flow cytometry; conditions: for T2 Binding: peptide 25 μg/mL, T2 cells, flow cytometry
T1 construct: endogenous in cells; host or cells: T2 cells
Source text: FIG. 1B is a graph depicting the binding of the P703 and P215 peptides to HLA-A2 molecules at various peptide concentrations. Peptide concentration (μg/mL) is on the x-axis, and mean fluorescence intensity (MFI) is on the y-axis. The positive control peptide is MUC-1, and the negative control peptide is CAP-7.
The T2 binding values are expressed in mean fluorescence intensity. The values in parentheses are fold increases as compared with the negative control (CAP-7 peptide).

[2] = target: T1, HLA-A2 molecules; experiment: Stability of peptide-HLA-A2 complexes on T2 cells after brefeldin A; assay type: binding; conditions: peptide 25 μg/mL overnight with T2 cells, various time points
Experimental: FIG. 1A is a graph depicting the stability of HLA-A2/NGEP complexes for various peptides. The time post-treatment with brefeldin A (hours) is on the x-axis, and the percentage of remaining complexes is on the y-axis. Results are expressed in relative percentage of binding compared to 100% at time 0.
To determine the stability of peptide-MHC complexes, several of the identified peptides (at concentrations of 25 μg/mL) were incubated with T2 cells overnight. Unbound peptides were washed off, and delivery of new class 1 molecules to the cell surface was blocked by the addition of brefeldin A. Cells then were analyzed for the presence of peptide-HLA-A2 complexes at various time points, as indicated by the degree of mean fluorescence intensity. […] P703 peptide also was determined to bind T2 cells at higher levels at various peptide concentrations than the P215 peptide and the positive control (see FIG. 1B).

[3] = system: CD8+ T cells in PBMC; experiment: Tetramer staining of PBMC from healthy donors and prostate cancer patients; assay type: cell-based, human; conditions: Patients 2, 3 and 4 of four, pre-vaccination
Experimental: To determine if prostate cancer patients recognized the NGEP-P703 epitope, PBMC from four patients with metastatic prostate cancer and from four healthy donors were analyzed for the presence of CD8^+ T cells reactive with the NGEP-P703 tetramer. T cells (5×10^5) were stained with 10 μl of PE-labeled NGEP-P703/HLA-A*0201 tetramer and anti-CD8 antibody.
These same four prostate cancer patients then were analyzed for tetramer binding after receiving six monthly cycles of a PSA-based vaccine (PSA/TRICOM).

Row | Sequence | T2 Binding [1] | further results
1 | WLLPAAVVGT [Peptide P356, NGEP long form amino acids 356-365] | 354 mean fluorescence intensity | –
2 | SLSYTNPAV [MUC-1, reference compound] | 452 mean fluorescence intensity | –
3 | ALLSASWAV [Peptide P170, NGEP long form amino acids 170-178] | 185 mean fluorescence intensity | –
4 | LVWEEDLKL [Peptide P113, NGEP short form amino acids 113-121] | 367 mean fluorescence intensity | –
5 | HLFGYSWYK [CAP-7, reference compound] | 88.0 mean fluorescence intensity | –
6 | FLDNIRAAGL [Peptide P143, NGEP short form amino acids 143-152] | 203 mean fluorescence intensity | –
7 | ILFEILAKT [Peptide P258, NGEP long form amino acids 258-266] | 280 mean fluorescence intensity | –
8 | VLLEVVPDV [Peptide P215, NGEP long form amino acids 215-223] | 464 mean fluorescence intensity | –
9 | GLGGPPLPTL [Peptide P10, NGEP short form amino acids 10-19] | 212 mean fluorescence intensity | –
10 | IVFEHVVFSV [Peptide P855, NGEP long form amino acids 855-864] | 203 mean fluorescence intensity | –
11 | LLAIRLWAV [Peptide P846, NGEP long form amino acids 846-854] | 126 mean fluorescence intensity | –
12 | GLFDEYLEMV [Peptide P703, NGEP long form amino acids 703-712] | 565 mean fluorescence intensity | Binding to T2 cells at various peptide concentrations (FIG. 1B) ([1]; compared with P215 peptide and positive control): higher levels; Stability of peptide-HLA-A2 complexes (FIG. 1A) [2]: most stable complexes; Frequency of NGEP-P703 specific CD8+ T cells, prostate cancer patients versus healthy donors [3]: higher frequency
